Results from patent US7910550B2, “Human kunitz-type inhibitor with enhanced antifibrinolytic activity” (STC.UNM, priority 2004, dated 2011).

B1: TFPI-2: Human tissue factor pathway inhibitor-2, 213 amino acid polypeptide with three tandem Kunitz-type domains (SEQ ID NO:1) (protein, listed as Homo sapiens)
chain: DAAQEPTGNNAEICLLPLDYGPCRALLLRYYYDRYTQSCRQFLYGGCEGNANNFYTWEACDDACWRIEKVPKVCRLQVSVDDQCEGSTEKYFFNLSSMTCEKFFSGGCHRNRIENRFPDEATCMGFCAPKKIPSFCYSPKDEGLCSANVTRYYFNPRYRTCDAFTYTGCGGNDNNFVSREDCKRACAKALKKKKKMPKLRFASRIRKIRKKQF
B2: R24K KD1: KD1 with lysine in place of arginine at position 24 (SEQ ID NO:3) (protein)
chain: DAAQEPTGNNAEICLLPLDYGPCKALLLRYYYDRYTQSCRQFLYGGCEGNANNFYTWEACDDACWRIEKVPKV
modifications: mutated active domain

Key:
HT-1080 cells [1] = experiment: Western blot of cell extracts (Bax, Bcl-2, cleaved caspase-9, cleaved caspase-3); assay type: cell-based, human; conditions: 1 μM, 48 hours; for activated caspase 9 and activated caspase 3 (immunoblot): vs vehicle-treated cells
Experimental: Cell extracts were analyzed for the pro-apoptotic Bax, the anti-apoptotic Bcl-2, cleaved caspase-9 and cleaved caspase-3 by immunoblotting techniques. Approximately, 1×10^6 HT-1080 cells were grown to confluence in 6-well plates and treated with recombinant proteins and vehicle as described above. Both floating and adherent cells were harvested and washed twice with cold PBS. The cells were lysed by sonication in 500 μl of lysis buffer containing of 125 mM Tris-HCl (pH 6.8), 2% SDS, 10% glycerol, 50 mM sodium phosphate, 1 mM PMSF and protease inhibitor cocktail. The lysate was kept on ice for about 10 minutes, centrifuged for 15 minutes at 10,000×g at 4° C., and the supernatant recovered. The supernatants were boiled for 3 min and 50 μg of lysate protein subjected to SDS-PAGE in 4-20% polyacrylamide gradient gels. […] The nitrocellulose membranes were then probed with specific antibodies dissolved in fresh blocking buffer, and immunoreactive proteins were identified using HRP-conjugated secondary antibodies and a chemiluminescent reagent system essentially as described in Kempiah et al., Mol. Cancer, 6:20, 2007. Separate blots were treated with mouse monoclonal anti-α-tubulin antibody in order to verify equal loading of lysate proteins onto the gel.

[2] = test system: VEGF-induced angiogenesis; experiment: VEGF-induced chorioallantoic membrane assay; assay type: in vivo; conditions: preliminary studies
HT-1080 cells [3] = experiment: Apoptosis detection by AO/EB staining; assay type: cell-based, human; conditions: 1 μM, 48 h; approximately 5% in vehicle-treated cells
Experimental: (§1) All cell lines were maintained in Dulbecco's minimal essential medium (DMEM), supplemented with heat-inactivated 10% fetal bovine serum and penicillin-streptomycin. The cells were cultured either in 6- or 12-well plates at 37° C. in a humidified atmosphere containing 6% CO2. At confluence, the cells were treated with fresh medium containing either wild-type TFPI-2, R24K KD1, or R24Q KD1. Cells were treated in duplicate with purified proteins at concentrations ranging from 0.5 μM to 10 μM for different time intervals. One set were also treated with PBS to serve as a control. The Limulus Amebocyte Lysate (LAL) assay was performed on each protein preparation to determine the presence of any endotoxin/LPS, and only trace amounts of endotoxin (<0.5 ng/L) were detected in each protein preparation.
Cells were grown to confluence in two-chamber culture slides containing 2 ml medium. For AO/EB staining, the cultures were treated with recombinant proteins as described above. […] Cells were viewed within 30 minutes of staining and counted using a Zeiss axiocam epifluorescence microscope (Carl Zeiss, Inc., Thornwood, N.Y.) equipped with a triple cube filter [DAPI/FITC/RITC]. […] Experiments were performed in triplicate, and a minimum of 100 total live and apoptotic cells were counted in each treatment.

HT-1080 cells [4] = experiment: DNA fragmentation analysis by agarose gel electrophoresis; assay type: cell-based, human; conditions: 48 hours
Experimental: Cells were grown to confluence in 6-well plates and treated with either wild-type TFPI-2 or R24K KD1 at the same concentrations described above. After incubation for either 24 or 48 hours at 37° C., the cells were harvested and washed twice with PBS. The DNA was then extracted using the DNEASY tissue kit (Qiagen, Valencia, Calif.) accordingly to the manufacturer's instructions. DNA extracts were electrophoresed in 1.8% agarose gels at 100 V for 45 minutes and visualized with ethidium bromide staining under UV illumination.

HT-1080 cells [5] = experiment: FACS analysis of apoptosis with annexin V/propidium iodide; assay type: cell-based, human; conditions: 1 μM, 48 hours; for cells in a late apoptotic stage (annexin V and PI positive): vehicle 4%; for early apoptotic cells (annexin V-FITC positive): vehicle 16%
Experimental: as §1
To assess the degree of apoptosis between the various treatments, cells were grown to confluence in 6 well plates and treated with either proteins or vehicle as described earlier. For annexin V staining, approximately 1.2×10^6 cells were harvested with PBS containing 1 mM EDTA and washed twice gently with cold PBS. The cells were suspended in 100 μl of cold binding buffer (10 mM Hepes (pH 7.4), 140 mM NaCl, 2.5 mM CaCl2), and subsequently incubated at room temperature in the dark for 25 minutes with 5 μl of FITC-conjugated annexin V and 10 μl of propidium iodide (50 μg/ml stock). The cells were then washed in 500 μl of binding buffer to remove unbound reagents, centrifuged at 900×g for 5 minutes, and resuspended in 1 ml of cold binding buffer. The labeled cells were then analyzed using a FACSCALIBUR flow cytometer (Becton Dickinson, San Jose, Calif.) and the data analyzed using […] software.

[6] = test system: FGF-2-induced angiogenesis; experiment: FGF-2-induced cornea pocket assay; assay type: in vivo; conditions: preliminary studies
[7] = target: factor VIIa-tissue factor complex (Homo sapiens, UniProt P08709); experiment: Inhibition assay for factor VIIa-tissue factor amidolytic activity (S-2288); assay type: biochemical; set-up: purchased Novo Nordisk (Copenhagen, Denmark) for factor VIIa (provided as a gift); soluble tissue factor prepared in house by a published method (Petersen et al., 1996); conditions: relative to wild-type KD1
Chain of factor VIIa-tissue factor complex (P08709 213-466 limits assumed): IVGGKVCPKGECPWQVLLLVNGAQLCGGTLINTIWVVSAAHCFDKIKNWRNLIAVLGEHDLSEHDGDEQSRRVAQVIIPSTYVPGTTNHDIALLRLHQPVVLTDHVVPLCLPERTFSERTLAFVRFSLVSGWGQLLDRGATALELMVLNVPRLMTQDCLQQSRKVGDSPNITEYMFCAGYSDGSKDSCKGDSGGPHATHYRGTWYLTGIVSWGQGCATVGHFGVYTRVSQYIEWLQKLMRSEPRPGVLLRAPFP
Chain of factor VIIa-tissue factor complex (P08709 61-212 partner limits assumed): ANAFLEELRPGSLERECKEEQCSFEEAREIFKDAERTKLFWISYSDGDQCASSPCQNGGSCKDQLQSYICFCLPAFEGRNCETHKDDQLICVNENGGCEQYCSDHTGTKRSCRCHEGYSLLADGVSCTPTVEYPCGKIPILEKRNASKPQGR
Chain of factor VIIa-tissue factor complex (P13726 33-251 partner limits assumed): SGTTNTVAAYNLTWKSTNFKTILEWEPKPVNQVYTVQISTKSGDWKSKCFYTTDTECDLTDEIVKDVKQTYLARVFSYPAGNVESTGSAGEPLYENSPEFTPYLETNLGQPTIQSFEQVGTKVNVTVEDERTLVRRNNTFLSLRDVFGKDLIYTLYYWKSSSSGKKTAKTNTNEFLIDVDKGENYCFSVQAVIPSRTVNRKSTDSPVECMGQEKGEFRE
Experimental: Recombinant soluble human tissue factor (100 nM) and factor VIIa (50 nM) were incubated in a TBS-BSA buffer/5 mM CaCl2 for 15 minutes at 37° C. Following this incubation, aliquots (100 μl) were dispensed into a 96-well microtitration plate and treated with serial dilutions of inhibitors dissolved in TBS buffer. After 15 minutes of incubation, 30 μl of S-2288 (final concentration, 1 mM) was added to each well and the absorbance at 405 nm was determined as described earlier.
The apparent inhibition constant, Ki′ was determined using the non-linear regression data analysis program Ultrafitfv3.0 (Biosoft). Trypsin and plasmin inhibitory data were analyzed according to the following equation for a tight-binding inhibitor: vi=v0[√(Ki′+[I]0+[E]0)^2−4[I]0[E]0−(Ki′+[I]0−[E]0)]/2[E]0 where vi and v0 are the inhibited and uninhibited rates, respectively, and [I]0 and [E]0 are the total concentrations of inhibitor and enzyme, respectively. Factor VIIa-tissue factor inhibition data, where Ki>>[E]0, were analyzed according to the following equation: vi=v0/(1+[I]0/Ki′) Ki values were obtained by correcting for the effect of substrate according to Bieth et al. (Biochem. Med., 32:387-397, 1984), where Ki=Ki′/(1+[S]/Km) Results Molecular Modeling and Selection of Mutations

[8] = test system: human colorectal cancer cell line (Colo-205); experiment: Caspase activation in Colo-205 cells; assay type: cell-based; conditions: 48 hour exposure, 1 μM

Row | Molecule | Bax and Bcl-2 protein expression (immunoblot) (HT-1080 cells [1]) | activated caspase 9 and activated caspase 3 (immunoblot) (HT-1080 cells [1]) | anti-angiogenic effect [2] | apoptotic cells (AO/EB staining) (HT-1080 cells [3]) | DNA fragmentation (HT-1080 cells [4]) | cells in a late apoptotic stage (annexin V and PI positive) (HT-1080 cells [5]) | early apoptotic cells (annexin V-FITC positive) (HT-1080 cells [5]) | anti-angiogenic effect [6] | reduction in inhibitory activity towards factor VIIa / VIIa-TF [7] | caspase activation [8]
1 | B1 | increased expression of the pro-apoptotic protein, Bax, and decreased expression of the anti-apoptotic protein, Bcl-2 | activation of caspase-9 and caspase-3 | potent and dose-dependent anti-angiogenic effect | 39% | ladder pattern typically associated with DNA fragmentation and apoptosis | ~43% | 55% | potent and dose-dependent anti-angiogenic effect | – | –
2 | B2 | increased expression of the pro-apoptotic protein, Bax, and decreased expression of the anti-apoptotic protein, Bcl-2 | activation of caspase-9 and caspase-3 | – | – | ladder pattern typically associated with DNA fragmentation and apoptosis | ~58% | 41% | – | approximately five-fold | caspase activation
